Target: the molecule itself
Test: dynamic light scattering; Zetasizer Nano S, 6 μM enzyme, 50 mM Hepes pH 7.4, 0.5 M NaCl, 25 °C; also with L-Orn and α-KG at saturating concentrations

B1: R217A variant of human ornithine δ-aminotransferase (enzyme, UniProt P04181 26-439, looked up)
chain: TSVATKKTVQGPPTSDDIFEREYKYGAHNYHPLPVALERGKGIYLWDVEGRKYFDFLSSYSAVNQGHCHPKIVNALKSQVDKLTLTSRAFYNNVLGEYEEYITKLFNYHKVLPMNTGVEAGETACKLARKWGYTVKGIQKYKAKIVFAAGNFWGRTLSAISSSTDPTSYDGFGPFMPGFDIIPYNDLPALEAALQDPNVAAFMVEPIQGEAGVVVPDPGYLMGVRELCTRHQVLFIADEIQTGLARTGRWLAVDYENVRPDIVLLGKALSGGLYPVSAVLCDDDIMLTIKPGEHGSTYGGNPLGCRVAIAALEVLEEENLAENADKLGIILRNELMKLPSDVVTAVRGKGLLNAIVIKETKDWDAWKVCLRLRDNGLLAKPTHGDIIRFAPPLVIKEDELRESIEIINKTILSF
notes: the protein as purified is reconstituted with PLP, so probably the holo-form (PLP on Lys292); A start Met from the NdeI site probably precedes T26; also called R217A mutant; dimeric variant R217A; source: E. coli BL21(DE3)pLysS, purified (DEAE Sepharose, Superdex 200)
stoichiometry N: 2

Source: PMC5432616 (The Protein Journal, 2017)
